Target: FLAG-tagged TRAP150 (thyroid hormone receptor-associated protein of 150 kDa), full length (UniProt Q9Y2W1)
Test: co-IP; anti-FLAG immunoprecipitation of FLAG-TRAP150 (full length or truncated) from lysate of transfected HEK293 cells (hypotonic buffer with 0.5% Triton X-100, brought to 150 mM NaCl); precipitates mock- or RNase A-treated; immunoblot of endogenous partners

Chain of UniProt Q9Y2W1 (Q9Y2W1 2-955): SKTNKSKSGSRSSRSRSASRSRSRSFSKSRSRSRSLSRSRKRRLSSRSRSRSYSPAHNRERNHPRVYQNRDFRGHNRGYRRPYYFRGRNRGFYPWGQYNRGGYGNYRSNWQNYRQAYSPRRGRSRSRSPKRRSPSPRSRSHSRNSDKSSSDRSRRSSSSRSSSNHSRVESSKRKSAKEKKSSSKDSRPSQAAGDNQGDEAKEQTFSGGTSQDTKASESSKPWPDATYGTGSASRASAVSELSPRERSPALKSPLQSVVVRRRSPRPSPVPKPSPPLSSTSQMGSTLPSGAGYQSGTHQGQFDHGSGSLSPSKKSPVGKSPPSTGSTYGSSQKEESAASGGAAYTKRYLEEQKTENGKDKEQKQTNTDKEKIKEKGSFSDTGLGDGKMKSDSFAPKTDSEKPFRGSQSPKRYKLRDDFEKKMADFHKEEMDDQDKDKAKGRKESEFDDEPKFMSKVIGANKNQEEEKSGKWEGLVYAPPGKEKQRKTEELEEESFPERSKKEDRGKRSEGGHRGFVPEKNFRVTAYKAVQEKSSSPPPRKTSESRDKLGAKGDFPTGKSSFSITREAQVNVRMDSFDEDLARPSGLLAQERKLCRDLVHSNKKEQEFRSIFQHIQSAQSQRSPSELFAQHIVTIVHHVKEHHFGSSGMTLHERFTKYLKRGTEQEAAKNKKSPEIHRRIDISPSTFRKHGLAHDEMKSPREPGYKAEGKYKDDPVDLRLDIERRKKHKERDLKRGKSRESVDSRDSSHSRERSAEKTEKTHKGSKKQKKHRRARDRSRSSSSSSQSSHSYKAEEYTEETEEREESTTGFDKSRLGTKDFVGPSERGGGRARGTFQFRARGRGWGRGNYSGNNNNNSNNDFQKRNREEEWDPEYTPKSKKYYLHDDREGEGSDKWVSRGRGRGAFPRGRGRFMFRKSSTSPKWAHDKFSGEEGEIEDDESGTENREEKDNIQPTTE

- percent of CPSF160 co-precipitated: 10 to 20%
B1: CPSF160 (natural protein)
chain: MYAVYKQAHPPTGLEFSMYCNFFNNSERNLVVAGTSQLYVYRLNRDAEALTKNDRSTEGKAHREKLELAASFSFFGNVMSMASVQLAGAKRDALLLSFKDAKLSVVEYDPGTHDLKTLSLHYFEEPELRDGFVQNVHTPRVRVDPDGRCAAMLVYGTRLVVLPFRRESLAEEHEGLVGEGQRSSFLPSYIIDVRALDEKLLNIIDLQFLHGYYEPTLLILFEPNQTWPGRVAVRQDTCSIVAISLNITQKVHPVIWSLTSLPFDCTQALAVPKPIGGVVVFAVNSLLYLNQSVPPYGVALNSLTTGTTAFPLRTQEGVRITLDCAQATFISYDKMVISLKGGEIYVLTLITDGMRSVRAFHFDKAAASVLTTSMVTMEPGYLFLGSRLGNSLLLKYTEKLQEPPASAVREAADKEEPPSKKKRVDATAGWSAAGKSVPQDEVDEIEVYGSEAQSGTQLATYSFEVCDSILNIGPCANAAVGEPAFLSEEFQNSPEPDLEIVVCSGHGKNGALSVLQKSIRPQVVTTFELPGCYDMWTVIAPVRKEEEDNPKGEGTEQEPSTTPEADDDGRRHGFLILSREDSTMILQTGQEIMELDTSGFATQGPTVFAGNIGDNRYIVQVSPLGIRLLEGVNQLHFIPVDLGAPIVQCAVADPYVVIMSAEGHVTMFLLKSDSYGGRHHRLALHKPPLHHQSKVITLCLYRDLSGMFTTESRLGGARDELGGRSGPEAEGLGSETSPTVDDEEEMLYGDSGSLFSPSKEEARRSSQPPADRDPAPFRAEPTHWCLLVRENGTMEIYQLPDWRLVFLVKNFPVGQRVLVDSSFGQPTTQGEARREEATRQGELPLVKEVLLVALGSRQSRPYLLVHVDQELLIYEAFPHDSQLGQGNLKVRFKKVPHNINFREKKPKPSKKKAEGGGAEEGAGARGRVARFRYFEDIYGYSGVFICGPSPHWLLVTGRGALRLHPMAIDGPVDSFAPFHNVNCPRGFLYFNRQGELRISVLPAYLSYDAPWPVRKIPLRCTAHYVAYHVESKVYAVATSTNTPCARIPRMTGEEKEFETIERDERYIHPQQEAFSIQLISPVSWEAIPNARIELQEWEHVTCMKTVSLRSEETVSGLKGYVAAGTCLMQGEEVTCRGRILIMDVIEVVPEPGQPLTKNKFKVLYEKEQKGPVTALCHCNGHLVSAIGQKIFLWSLRASELTGMAFIDTQLYIHQMISVKNFILAADVMKSISLLRYQEESKTLSLVSRDAKPLEVYSVDFMVDNAQLGFLVSDRDRNLMVYMYLPEAKESFGGMRLLRRADFHVGAHVNTFWRTPCRGATEGLSKKSVVWENKHITWFATLDGGIGLLLPMQEKTYRRLLMLQNALTTMLPHHAGLNPRAFRMLHVDRRTLQNAVRNVLDGELLNRYLYLSTMERSELAKKIGTTPDIILDDLLETDRVTAHF
